These substances were tested against acetylcholine receptor (Homo sapiens, UniProt P02708) (assay: SPR binding affinity (RU) of optimized 5mer/6mer/7mer peptides, Examples 6-7). Settings: 6mer-1 Top sequence; SPR; peptides tested at 10 μM.
Outline: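 Synthetic 5mer and 6mer peptides, built from frequent or infrequent amino-acid combinations, were tested at 10 μM for binding to the human acetylcholine receptor by surface plasmon resonance. Binding is reported in response units (RU).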

Sequence of acetylcholine receptor (P02708 21-457): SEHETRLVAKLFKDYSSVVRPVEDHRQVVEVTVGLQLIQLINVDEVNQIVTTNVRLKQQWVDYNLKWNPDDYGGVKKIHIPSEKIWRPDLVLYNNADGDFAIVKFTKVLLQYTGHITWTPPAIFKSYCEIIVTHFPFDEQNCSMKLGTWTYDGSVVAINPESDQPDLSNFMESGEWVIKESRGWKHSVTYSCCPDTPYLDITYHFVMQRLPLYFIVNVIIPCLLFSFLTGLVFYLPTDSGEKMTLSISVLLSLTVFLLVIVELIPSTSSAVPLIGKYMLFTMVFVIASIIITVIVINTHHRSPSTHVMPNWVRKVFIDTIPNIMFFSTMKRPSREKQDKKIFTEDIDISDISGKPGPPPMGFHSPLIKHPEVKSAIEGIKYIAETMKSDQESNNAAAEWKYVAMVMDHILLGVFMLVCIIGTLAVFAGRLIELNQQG

Substance	Binding affinity [Ru]
6mer-1-397 (KRLILR)	125

Same assay, conditions: 6mer-2 Top sequence; SPR; peptides tested at 10 μM

Substance	Binding affinity [Ru]
6mer-2-149 (KGQQRK)	127
6mer-2-80 (RRQYKR)	148

Same assay, conditions: SPR, Resonance Units; 5mer Bottom sequence (bottom combinations); peptides tested at 10 μM

Substance	Binding affinity [Ru]
5mer-805 (RPTNR)	27
5mer-661 (RCNMK)	30
5mer-1006 (KEPER)	17
5mer-1014 (RKNKR)	23
5mer-768 (RDSWR)	11
5mer-603 (RKEPK)	27
5mer-991 (RPEFR)	24
5mer-905 (RPSPR)	30
5mer-769 (KTEWK)	32

Same assay, conditions: SPR, Resonance Units; peptides tested at 10 μM; 6mer-1 Bottom sequence

Substance	Binding affinity [Ru]
6mer-1-1089 (RKFTKK)	31
6mer-1-1120 (RRKEAK)	22

Same assay, conditions: SPR, Resonance Units; peptides tested at 10 μM; 6mer-1 Bottom sequence (Table 11)

Substance	Binding affinity [Ru]
6mer-1-768 (RKFEWK)	32
6mer-1-638 (KKESHR)	20
6mer-1-788 (RKIPKK)	22
6mer-1-652 (RRPEVK)	26
6mer-1-606 (RREWFR)	15

Same assay, conditions: SPR, Resonance Units; peptides tested at 10 μM; 6mer-2 Bottom sequence

Substance	Binding affinity [Ru]
6mer-2-736 (KNNHKK)	29
6mer-2-784 (KAEWRK)	26
6mer-2-699 (KNAGKR)	23
6mer-2-644 (REPNRR)	12
6mer-2-805 (RDTMKK)	12
6mer-2-827 (KYAEKK)	13
6mer-2-607 (KKWVKR)	31
6mer-2-612 (RDCVRK)	17
6mer-2-810 (KHAKKK)	18
6mer-2-737 (KDSVRR)	19

Same assay, conditions: SPR, Resonance Units; peptides tested at 10 μM; 6mer-2 Top sequence

Substance	Binding affinity [Ru]
6mer-2-559 (KGQLRR)	121
6mer-2-433 (RWIQKR)	139
6mer-2-538 (KQFCKK)	125
6mer-2-494 (KGLLRR)	144

Same assay, conditions: SPR, Resonance Units; peptides tested at 10 μM; 6mer-2 Top sequence (Table 12)

Substance	Binding affinity [Ru]
6mer-2-325 (RVFSRK)	142

Same assay, conditions: SPR, peptides at 10 μM; 6mer-2 Bottom sequence

Substance	Binding affinity [Ru]
6mer-2-1195 (KMTERK)	25

Same assay, conditions: SPR, peptides tested at 10 μM; 5mer Top sequence

Substance	Binding affinity [Ru]
5mer-326 (RRFTK)	68
5mer-88 (RRVQK)	73
5mer-99 (RWICK)	58
5mer-75 (KVQTK)	63

Same assay, conditions: SPR, peptides tested at 10 μM; 5mer Top sequence (top combinations)

Substance	Binding affinity [Ru]
5mer-258 (KRQYK)	84
5mer-244 (KSVSK)	78
5mer-216 (KWVRR)	56

Same assay, conditions: SPR, peptides tested at 10 μM; 6mer-1 Bottom sequence (Table 11)

Substance	Binding affinity [Ru]
6mer-1-842 (RRFANK)	11

Same assay, conditions: SPR, peptides tested at 10 μM; 6mer-1 Top sequence

Substance	Binding affinity [Ru]
6mer-1-537 (RRGLCK)	154
6mer-1-588 (RRLVRK)	153
6mer-1-540 (KRVQTR)	128
6mer-1-560 (RRSFSK)	127
6mer-1-568 (KRWQQK)	147
6mer-1-442 (RKLQYK)	131

Same assay, conditions: SPR, peptides tested at 10 μM; 6mer-1 Top sequence (top combinations)

Substance	Binding affinity [Ru]
6mer-1-81 (RRWQLR)	148
6mer-1-130 (RKQVLR)	142
6mer-1-1 (KKVISK)	122
6mer-1-78 (KKRVSK)	145
6mer-1-24 (RKVIRK)	142

Same assay, conditions: SPR; XRRGVRR-7mer and RRGVRRX-7mer

Substance	Binding affinity, values relative to the RRGVRR sequence
3660 (ERRGVRR) [compound 3660]	43
3670 (RRGVRRF) [compound 3670]	137
3646 (LRRGVRR) [compound 3646]	149

Same assay, conditions: SPR; XRRQRR-6mer and RRQRRX-6mer

Substance	Binding affinity, relative value to the RRQRR sequence
3601 (GRRQRR) [compound 3601]	132
3638 (RRQRRH) [compound 3638]	158

Same assay, conditions: SPR; peptides tested at 10 μM; 5mer Bottom sequence

Substance	Binding affinity [Ru]
5mer-1117 (RHKIR)	11
5mer-1191 (RMDWK)	30
5mer-1167 (KESWK)	12
5mer-1132 (KFSMK)	19
5mer-824 (KIDMK)	13
5mer-1200 (RKNEK)	16

— patent US20250011363A1, “OPTIMIZED SHORTENED PEPTIDE THAT BINDS TO ACETYLCHOLINE RECEPTOR, AND USE THEREOF” (SKINMED CO., LTD., priority 2021, published 2025)
